The text below walks through data of US20140212436A1.

Sequence of FcγRIIaR (human) (P12318 34-217 H167R limits assumed): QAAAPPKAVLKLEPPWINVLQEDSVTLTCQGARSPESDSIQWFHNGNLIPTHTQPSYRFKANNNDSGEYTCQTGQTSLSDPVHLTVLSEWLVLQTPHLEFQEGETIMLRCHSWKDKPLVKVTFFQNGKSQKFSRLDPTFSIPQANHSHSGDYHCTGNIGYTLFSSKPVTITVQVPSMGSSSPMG
Sequence of human H131 FcγRIIa (human) (P12318 other isoform, or with tags, fused parts or gaps limits assumed): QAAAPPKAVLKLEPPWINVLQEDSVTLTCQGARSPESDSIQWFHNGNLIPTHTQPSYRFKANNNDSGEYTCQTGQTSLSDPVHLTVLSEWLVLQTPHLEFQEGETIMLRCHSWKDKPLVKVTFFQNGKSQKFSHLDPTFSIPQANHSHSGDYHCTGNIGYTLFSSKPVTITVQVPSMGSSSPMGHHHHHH
Sequence of XENP12562 (hSCR1-4 Fc fusion) (P20023 21-273 limits assumed): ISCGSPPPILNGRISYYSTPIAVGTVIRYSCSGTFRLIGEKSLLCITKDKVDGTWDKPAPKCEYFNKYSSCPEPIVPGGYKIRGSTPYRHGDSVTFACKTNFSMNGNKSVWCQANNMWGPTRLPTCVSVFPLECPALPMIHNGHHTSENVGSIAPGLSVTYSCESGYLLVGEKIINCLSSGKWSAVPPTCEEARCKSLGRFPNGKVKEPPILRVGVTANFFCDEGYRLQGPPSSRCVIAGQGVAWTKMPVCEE
Sequence of IgE (from a human IgE ELISA kit, Bethyl Laboratories) (human) (P01854 other isoform, or with tags, fused parts or gaps): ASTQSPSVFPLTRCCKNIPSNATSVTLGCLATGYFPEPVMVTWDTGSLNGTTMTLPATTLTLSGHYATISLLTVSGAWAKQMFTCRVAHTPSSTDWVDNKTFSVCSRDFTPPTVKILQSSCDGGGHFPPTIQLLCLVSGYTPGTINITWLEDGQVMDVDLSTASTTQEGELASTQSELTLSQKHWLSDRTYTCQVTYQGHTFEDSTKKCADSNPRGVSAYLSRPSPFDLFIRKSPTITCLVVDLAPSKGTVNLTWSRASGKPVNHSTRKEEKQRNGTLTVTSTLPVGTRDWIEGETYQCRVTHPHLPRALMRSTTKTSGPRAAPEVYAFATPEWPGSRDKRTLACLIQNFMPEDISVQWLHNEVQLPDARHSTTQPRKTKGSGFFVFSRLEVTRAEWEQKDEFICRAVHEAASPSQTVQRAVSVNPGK
Sequence of XENP12561 (hSCR1-2 Fc fusion) (P20023 21-148 limits assumed): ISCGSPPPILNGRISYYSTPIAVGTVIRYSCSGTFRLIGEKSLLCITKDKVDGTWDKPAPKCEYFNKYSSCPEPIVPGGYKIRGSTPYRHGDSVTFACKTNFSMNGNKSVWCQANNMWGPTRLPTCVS

For one experiment, the target named is recombinant human FcγRIIb protein (human) (UniProt P31994). The experiment in a line: Biacore SPR, antibody captured on protein A/G, FcγRIIb injected. Background: Surface plasmon resonance follows binding to a sensor surface in real time, without labels.
Sequence of recombinant human FcγRIIb protein (human) (P31994 46-217 limits assumed): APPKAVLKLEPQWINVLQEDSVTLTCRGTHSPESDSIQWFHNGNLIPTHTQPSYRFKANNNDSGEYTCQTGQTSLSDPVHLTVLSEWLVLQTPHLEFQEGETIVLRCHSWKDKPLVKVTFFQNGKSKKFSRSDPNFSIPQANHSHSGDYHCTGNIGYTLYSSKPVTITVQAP
By Kd is commonly meant the concentration at which binding is half-saturated. “anti-CD19 antibody HuAM4G7, WT (native) IgG1 Fc”: the Kd amounted to 1800 nM.

The next experiment concerns the target XENP12704, anti-IgE antibody containing human C3d fused to the C-terminus of Ckappa (human) (UniProt P01834). Kind of experiment: ELISA, CR2-Fc coated; the concentration is that of XENP12704.
What is called EC50 (read off the curve) is the concentration at which the effect is half-maximal. A lower EC50 (read off the curve) goes with higher potency in that assay. For the substance “XENP12561 (hSCR1-2 Fc fusion) (from UniProt P20023 21-148)”, the EC50 (read off the curve) amounted to 0.02 µg/mL.
Still for that read-out and setting: in the case of “XENP12562 (hSCR1-4 Fc fusion) (from UniProt P20023 21-273)” it was 0.003 µg/mL.

Another experiment addresses IgE (from a human IgE ELISA kit, Bethyl Laboratories) (human) (UniProt P01854). The experiment in a line: sandwich ELISA, antibody coated as capture; the concentration is that of IgE.
As for MaE11_IgG1_G236R/L328R (antibody), the EC50 (read off the curve) came to 0.05 µg/mL.

In a further experiment the target is human V158 FcγRIIIa (human) (UniProt P08637). Kind of experiment: Biacore.
Sequence of human V158 FcγRIIIa (human) (P08637 other isoform, or with tags, fused parts or gaps limits assumed): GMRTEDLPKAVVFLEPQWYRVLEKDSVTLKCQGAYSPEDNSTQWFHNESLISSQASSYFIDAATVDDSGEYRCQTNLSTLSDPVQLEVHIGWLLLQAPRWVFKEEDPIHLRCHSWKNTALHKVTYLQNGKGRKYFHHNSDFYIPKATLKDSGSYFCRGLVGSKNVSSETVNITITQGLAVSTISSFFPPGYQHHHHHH
In the case of S267E (antibody), the Fold came out at 0.29 and the Kd came to 690 nM.
The substance “anti-CD19 antibody HuAM4G7, IgG1 Fc variant S239D/S267E” gave a Fold of 3 and a Kd of 62 nM.
“anti-CD19 antibody HuAM4G7, IgG1 Fc variant S239D/I332E”: the Kd is 6.8 nM.
Substance “anti-CD19 antibody HuAM4G7, WT (native) IgG1 Fc” yielded a Fold of 1 and a Kd of 200 nM.

The next experiment addresses recombinant human FcγRIIb protein (human) (UniProt P31994). Kind of experiment: Biacore.
S267E (antibody): the Fold came out at 30 and the Kd is 60 nM.
Taken in the same sequence, the figures for “anti-CD19 antibody HuAM4G7, IgG1 Fc variant S239D/S267E” were 150 and 12 nM.
In the case of “anti-CD19 antibody HuAM4G7, IgG1 Fc variant G236D/S267E”, the Kd was 25 nM.
Consider “anti-CD19 antibody HuAM4G7, IgG1 Fc variant S267E/L328F”, for which the Fold was 429 and the Kd was 4.2 nM.
For “anti-CD19 antibody HuAM4G7, IgG1 Fc variant S239D/I332E”, the Kd is 88 nM.
As to “anti-CD19 antibody HuAM4G7, WT (native) IgG1 Fc”, the Fold turned out to be 1.

A further experiment addresses human H131 FcγRIIa (human) (UniProt P12318). The experiment in a line: Biacore.
S267E (antibody) gave a Fold of 0.89 and a Kd of 960 nM.
For “anti-CD19 antibody HuAM4G7, IgG1 Fc variant S239D/S267E”, in that order: 1.2 and 700 nM.
Take “anti-CD19 antibody HuAM4G7, IgG1 Fc variant G236D/S267E”: the Kd came out at 2200 nM.
In turn, “anti-CD19 antibody HuAM4G7, IgG1 Fc variant S267E/L328F” had a Fold of 0.97 and a Kd of 880 nM.
“anti-CD19 antibody HuAM4G7, IgG1 Fc variant S239D/I332E”: the Kd was 220 nM.
On to “anti-CD19 antibody HuAM4G7, WT (native) IgG1 Fc”, for which the Fold came to 1 and the Kd stood at 850 nM.

For another experiment, the target named is human FcγRI (human) (UniProt P12314). Kind of experiment: Biacore.
Sequence of human FcγRI (human) (P12314 16-288 limits assumed): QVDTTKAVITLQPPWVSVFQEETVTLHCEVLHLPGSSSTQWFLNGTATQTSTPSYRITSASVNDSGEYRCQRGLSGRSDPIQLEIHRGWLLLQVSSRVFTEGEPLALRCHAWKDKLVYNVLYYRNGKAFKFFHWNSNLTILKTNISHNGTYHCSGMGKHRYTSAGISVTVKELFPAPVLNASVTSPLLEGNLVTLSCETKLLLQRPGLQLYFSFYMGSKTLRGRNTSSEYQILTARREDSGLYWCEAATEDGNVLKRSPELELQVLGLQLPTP
For S267E (antibody), the Fold is 1.1 and the Kd was 0.26 nM.
For “anti-CD19 antibody HuAM4G7, IgG1 Fc variant S239D/S267E”, in that order: 1.6 and 0.17 nM.
As to “anti-CD19 antibody HuAM4G7, IgG1 Fc variant G236D/S267E”, the Kd came to 3.2 nM.
The substance “anti-CD19 antibody HuAM4G7, IgG1 Fc variant S267E/L328F” came in with a Fold of 1.2 and a Kd of 0.23 nM.
The substance “anti-CD19 antibody HuAM4G7, IgG1 Fc variant S239D/I332E” displayed a Kd of 0.14 nM.
Turning to “anti-CD19 antibody HuAM4G7, WT (native) IgG1 Fc”, the Fold stood at 1 and the Kd was found to be 0.28 nM.

The next experiment has as its target human V158 FcγRIIIa (human) (UniProt P08637). Kind of experiment: Biacore. The source holds these as a separate data set.
Regarding S267E (antibody), the Fold came to 0.381 and the Kd was 503 nM.
For “anti-CD19 antibody HuAM4G7, IgG1 Fc variant S239D/S267E”, in that order: 3.74 and 51.2 nM.
Turning to “anti-CD19 antibody HuAM4G7, IgG1 Fc variant G236D/S267E”, the Kd amounted to 579 nM.
Take “anti-CD19 antibody HuAM4G7, IgG1 Fc variant S267E/L328F”: the Fold stood at 0.038 and the Kd was 5040 nM.
In the case of L328F (antibody), the Kd was 58400 nM.
S239D (antibody) registered a Fold of 8.14 and a Kd of 23.5 nM.
For V266M (antibody), the Fold is 0.547 and the Kd was determined as 350 nM.
For S267A (antibody), in that order: 0.952 and 201 nM.
Taken in the same sequence, the figures for L235Y/S267E/H268E (antibody) were 0.428 and 447 nM.
In turn, “anti-CD19 antibody HuAM4G7, WT (native) IgG1 Fc” came in with a dissociation constant (Kd) of 191 nM.

The next experiment has as its target recombinant human FcγRIIb protein (human) (UniProt P31994). Kind of experiment: Biacore. This is another data set of the same source.
As for S267E (antibody), the Fold is 20.4 and the Kd was found to be 71.9 nM.
Turning to “anti-CD19 antibody HuAM4G7, IgG1 Fc variant S239D/S267E”, the Fold worked out at 111 and the dissociation constant (Kd) stood at 13.3 nM.
As for “anti-CD19 antibody HuAM4G7, IgG1 Fc variant G236D/S267E”, the Kd stood at 26.6 nM.
Take “anti-CD19 antibody HuAM4G7, IgG1 Fc variant S267E/L328F”: the Fold came out at 242 and the Kd was 6.06 nM.
On to “anti-CD19 antibody HuAM4G7, IgG1 Fc variant S239D/I332E”, for which the Kd turned out to be 101 nM.
Same read-out and setting: with L328F (antibody) the figure was 541 nM.
For S239D (antibody), the Fold worked out at 3.6 and the Kd stood at 408 nM.
With V266M (antibody), the Fold came to 1.91 and the Kd was determined as 770 nM.
As to S267A (antibody), the Kd came to 408 nM.
For L235Y/S267E/H268E (antibody), the Fold was 69.9 and the Kd worked out at 21 nM.
In the case of “anti-CD19 antibody HuAM4G7, WT (native) IgG1 Fc”, the Kd stood at 1470 nM.

Another experiment deals with FcγRIIIaF (human) (UniProt P08637). Kind of experiment: Biacore.
Sequence of FcγRIIIaF (human) (P08637 17-208 limits assumed): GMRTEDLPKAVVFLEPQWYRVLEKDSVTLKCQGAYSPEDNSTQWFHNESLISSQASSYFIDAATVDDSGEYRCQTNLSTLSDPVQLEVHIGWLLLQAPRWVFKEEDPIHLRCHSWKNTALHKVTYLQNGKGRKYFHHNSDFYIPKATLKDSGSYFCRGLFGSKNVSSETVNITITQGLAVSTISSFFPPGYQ
In the case of “anti-CD19 antibody HuAM4G7, IgG1 Fc variant S239D/S267E”, the Fold came to 2.62 and the Kd stood at 516 nM.
In the case of “anti-CD19 antibody HuAM4G7, IgG1 Fc variant S239D/I332E”, the Kd came to 28.2 nM.
In the case of “anti-CD19 antibody HuAM4G7, WT (native) IgG1 Fc (antibody; other documents disagree on this pair)”, the Fold was determined as 1 and the Kd is 1350 nM.
The substance L328F (antibody) displayed a Kd of 5110 nM.
The substance S239D (antibody) registered a Fold of 6.32 and a Kd of 214 nM.

A further experiment addresses human H131 FcγRIIa (human) (UniProt P12318). Kind of experiment: Biacore. The source holds these as a separate data set.
S267E (antibody) yielded a Fold of 0.753 and a Kd of 859 nM.
The substance “anti-CD19 antibody HuAM4G7, IgG1 Fc variant S239D/S267E” returned a Fold of 1.27 and a Kd of 510 nM.
Take “anti-CD19 antibody HuAM4G7, IgG1 Fc variant G236D/S267E”: the Kd was 2730 nM.
On to “anti-CD19 antibody HuAM4G7, IgG1 Fc variant S267E/L328F”, for which the Fold amounted to 0.7 and the Kd turned out to be 923 nM.
Turning to “anti-CD19 antibody HuAM4G7, IgG1 Fc variant S239D/I332E”, the Kd is 163 nM.
Same read-out and setting: in the case of S239D (antibody) it was 590 nM.
V266M (antibody) returned a Fold of 1.17 and an equilibrium dissociation constant (Kd) of 553 nM.
For S267A (antibody), in that order: 1.22 and 530 nM.
Taken in the same sequence, the figures for L235Y/S267E/H268E (antibody) were 0.157 and 4130 nM.
The substance “anti-CD19 antibody HuAM4G7, WT (native) IgG1 Fc” showed a Kd of 646 nM.

A further experiment addresses FcγRIIaR (human) (UniProt P12318). Kind of experiment: Biacore.
S267E (antibody): the Fold amounted to 29.5 and the Kd came out at 29.1 nM.
For “anti-CD19 antibody HuAM4G7, IgG1 Fc variant S239D/S267E”, in that order: 120 and 7.16 nM.
Taken in the same sequence, the figures for “anti-CD19 antibody HuAM4G7, IgG1 Fc variant S267E/L328F” were 275 and 3.12 nM.
“anti-CD19 antibody HuAM4G7, IgG1 Fc variant S239D/I332E” yielded a Kd of 68.6 nM.
For L328F (antibody), the Kd stood at 166 nM.
As to S239D (antibody), the Fold was 3.73 and the Kd is 230 nM.
In turn, V266M (antibody) had a Fold of 3.13 and a Kd of 274 nM.
S267A (antibody) came in with a Fold of 4.29 and a Kd of 200 nM.
Taken in the same sequence, the figures for L235Y/S267E/H268E (antibody) were 48.2 and 17.8 nM.
The substance “anti-CD19 antibody HuAM4G7, WT (native) IgG1 Fc” came in with a Fold of 1 and a Kd of 859 nM.

For a further experiment, the target named is human FcγRI (human) (UniProt P12314). The experiment in a line: Biacore. The source holds these as a separate data set.
Substance S267E (antibody) registered a Fold of 2.81 and a Kd of 0.117 nM.
For “anti-CD19 antibody HuAM4G7, IgG1 Fc variant S239D/S267E”, in that order: 23.2 and 0.0142 nM.
“anti-CD19 antibody HuAM4G7, IgG1 Fc variant G236D/S267E”: the Kd was 3.71 nM.
“anti-CD19 antibody HuAM4G7, IgG1 Fc variant S267E/L328F” registered a Fold of 1.5 and a Kd of 0.22 nM.
Regarding “anti-CD19 antibody HuAM4G7, IgG1 Fc variant S239D/I332E”, the Kd came out at 0.0374 nM.
Regarding L328F (antibody), the Kd was determined as 0.452 nM.
S239D (antibody) came in with a Fold of 3.53 and a Kd of 0.0934 nM.
For V266M (antibody), in that order: 1.25 and 0.264 nM.
Substance S267A (antibody) displayed a Fold of 1.15 and a Kd of 0.287 nM.
The substance L235Y/S267E/H268E (antibody) came in with a Fold of 0.0103 and a Kd of 32.1 nM.
Turning to “anti-CD19 antibody HuAM4G7, WT (native) IgG1 Fc”, the Kd stood at 0.329 nM.
